Substitutions are numbered along the chain they refer to. Values belong to the binder of their own block, whether it stands above or below them.
Tests used:
[1] = target: T1, human PDL1 expressed on cells (human, UniProt Q9NZQ7 19-290); assay: cell-based or functional assay
Fc tagged human PDL1 [2] = target: T2, Fc tagged human PDL1 (human, UniProt Q9NZQ7 19-238); assay: SPR Biacore T200; Fc tagged PDL1 captured; scFv 0.12-30 nM
T2 construct: also called PDL1-Fc chimeric protein (human); not shown: Fc tag
Description: (§1) After each analyte injection cycle, the CM5 sensor chip was regenerated and new antigen was captured. The scFvs were injected as analyte using a dose response multicycle kinetic assay with concentrations of the analyte ranging from 0.12 to 30 nM diluted in running buffer for 5 min and dissociation of the protein was allowed to proceed for 12 min. Obtained sensorgrams were fitted using the 1:1 binding model.

[3] = target: T3, human PDL1 (recombinant, soluble) (human, UniProt Q9NZQ7 19-238); assay: PDL1/B7-1 competition ELISA; B7-1 coated; scFv
T3 construct: also called hPDL1; hPD-L1
Description: (§2) ELISA plates were coated by adding 50 μl of PBS containing 4 μg/ml B7-1 overnight at 4° C. Next day, plates were washed three times in overflow mode with 450 μl wash buffer (PBS, 0.005% Tween 20) per wells and 300 μl of blocking buffer (PBS, 1% BSA, 0.2% Tween 20) were added to each well for 1 h at RT on a nutating mixer. […] ELISA pates were washed 3 times in overflow mode with 450 μl wash buffer and two times 50 μl of each dilution was added in adjacent wells of the ELISA plates in order to generate duplicates. Plates were incubated 90 minutes at RT under gentle agitation. After three washes with 450 μl of washing buffer, 50 μl of streptavidin-polyHRP40 was added to each wells of the ELISA plate. After 1 h incubation at RT, plates were washed three times with 450 μl wash buffer and developed for 5 to 10 minutes after addition of 50 μl TMB. Finally, the enzymatic reaction was stopped by addition of 50 μl of 1 M HCl and plate was read at 450 nm using 690 nm as a reference wavelength.

Fc tagged human PDL1 [4] = target: T2, Fc tagged human PDL1; assay: SPR Biacore T200; PDL1-Fc captured; molecule 0.12-90 nM
Description: (§3) An antibody specific for the Fc region of human IgGs was immobilized on a sensor chip (CM5 sensor chip, GE Healthcare) by amine-coupling. […] After each injection cycle, surfaces were regenerated with one injection of a 3 M MgCl₂ solution. The apparent dissociation (kd) and association (kₐ) rate constants and the apparent dissociation equilibrium constant (KD) were calculated using one-to-one Langmuir binding model.

[5] = target: cynomolgus PDL1, recombinant (Sino Biological) / PDL1-Fc chimeric protein (cynomolgus (Macaca fascicularis), UniProt G7PSE7 19-238); assay: SPR Biacore T200; cynomolgus PDL1 (Sino Biological) captured; scFv as analyte
Chain of cynomolgus PDL1, recombinant (Sino Biological) / PDL1-Fc chimeric protein (G7PSE7 entry or part of it mutant limits assumed): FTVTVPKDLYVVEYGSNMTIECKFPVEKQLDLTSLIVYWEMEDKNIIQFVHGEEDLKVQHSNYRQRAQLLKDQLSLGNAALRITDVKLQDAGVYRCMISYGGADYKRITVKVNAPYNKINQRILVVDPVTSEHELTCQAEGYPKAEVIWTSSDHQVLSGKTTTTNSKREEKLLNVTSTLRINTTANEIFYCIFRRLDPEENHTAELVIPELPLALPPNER
Description: as §1

[6] = target: T3, human PDL1 (recombinant, soluble); assay: PDL1/PD-1 competition ELISA; PD-1 coated, biotinylated PDL1 1 ng/ml
Description: (§4) ELISA microplates coated overnight at 4° C. with 4 μg/ml human PD-1 were washed three times with 450 μl wash buffer per well. Plates were blocked for 1 hour at room temperature by adding 300 μl of PBS with 1% BSA and 0.2% tween (dilution buffer) to each well. […] The mixtures were pre-incubated for 1 hour at room temperature under gentle agitation on a rotating mixer (21 rpm) and added to the microplates after 3 wash cycles with 450 μl wash buffer per well. Plates were incubated for 1.5 hours at room temperature under gentle agitation, then 10 ng/ml streptavidin-polyHRP40 was added to each microplate well after three washes with 450 μl of wash buffer per well. After 1 h incubation at RT, plates were washed three times with 450 μl wash buffer and TMB substrate solution was added. The enzymatic reaction was stopped after 6 minutes by addition of 1 M HCl and absorbance was measured at 450 nm using 690 nm as a reference wavelength. For calculation of IC₅₀ values, a four-parameter logistic (4PL) curve fit was performed in Graph Pad Prism using reference subtracted values.

Fc tagged human PDL1 [7] = target: T2, Fc tagged human PDL1; assay: SPR Biacore T200; PDL1-Fc captured
Description: as §3

[8] = target: T1, human PDL1 expressed on cells; assay: cell-based or functional assay; remark: listed apart in the source
[9] = target: T3, human PDL1 (recombinant, soluble); assay: PDL1/B7-1 competition ELISA; B7-1 coated, biotinylated PDL1 40 ng/ml
Description: as §4, with “B7-1” for “PD-1”

[10] = target: T1, human PDL1 expressed on cells; assay: cell-based or functional assay; remark: listed apart in the source
[11] = target: T1, human PDL1 expressed on cells; assay: cell-based or functional assay; remark: listed apart in the source
[12] = target: T3, human PDL1 (recombinant, soluble); assay: PDL1/PD-1 competition ELISA; PD-1 coated; scFv
Description: as §2, with “4 μg/ml PD-1 overnight at” for “4 μg/ml B7-1 overnight at”, “μl of 10 ng/ml streptavidin-polyHRP40 were” for “μl of streptavidin-polyHRP40 was”, “ng/ml streptavidin-polyHRP40 were added to” for “of streptavidin-polyHRP40 was added to”, “the ELISA plates. After 1” for “the ELISA plate. After 1”

Fc tagged human PDL2 = target: T4, Fc tagged human PDL2 (human, UniProt Q9BQ51 20-219); assay: SPR Biacore T200; Fc tagged human PDL2 captured; scFv as analyte
T4 construct: not shown: Fc tag
T4 sequence (looked up): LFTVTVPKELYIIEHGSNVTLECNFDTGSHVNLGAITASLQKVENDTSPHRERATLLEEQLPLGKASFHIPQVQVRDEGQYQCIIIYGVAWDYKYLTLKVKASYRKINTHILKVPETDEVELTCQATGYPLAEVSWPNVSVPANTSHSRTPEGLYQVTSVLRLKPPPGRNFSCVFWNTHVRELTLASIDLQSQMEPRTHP
Description: Humanized scFvs were tested for binding to PDL2 by SPR analysis on a T200 device (Biacore, GE Healthcare). In this experiment, Fc tagged human PDL2 was captured using the Human Antibody Capture kit from GE healthcare. After each analyte injection cycle the CM5 sensor chip was regenerated and new antigen was captured. The scFvs were injected as analyte at a concentration of 180 nM diluted in running buffer for 5 min and dissociation of the protein was allowed to proceed for 12 min.

[13] = target: T1, human PDL1 expressed on cells; assay: flow cytometry on CHO-PDL1 cells; scFv detected by APC labelled protein-L

- NF-AT potency assay IC50 [1]: 11.1 ng/mL
- Kd (Fc tagged human PDL1 [2]): 5.94 pM
- koff (Fc tagged human PDL1 [2]): 4.02e-05 s⁻¹
- kon (Fc tagged human PDL1 [2]): 6.76e+06 M⁻¹ s⁻¹
- IC50 [3]: 1.21 ng/mL
- Maximum Inhibition (%) [3]: 93.1%
- Kd (Fc tagged human PDL1 [4]): 1.7 pM
- KD, cyno/KD, human [5]: < 0.28
- Kd [5]: < 0.00168 nM
- kon [5]: 5.96e+06 M⁻¹ s⁻¹
- IC50 [6]: 0.5 ng/mL
- fold higher affinity against the STR graft of clone 33-03-G02 (Fc tagged human PDL1 [7]): ~2 fold
- reporter gene assay IC50 [8]: 8.02 ng/mL
- reporter gene assay Maximum Inhibition (%) [8]: 95.3%
- IC50 [9]: 0.00636 µg/mL
- NFAT reporter gene assay, fold potency of VH4 graft (PRO997) against VH1 graft (PRO1013) [10]: ~2 fold
- IL-2 secretion of SEA stimulated PBMC, EC50 in ng/ml [11]: 40.9 ng/mL
- IC50 [12]: 0.33 ng/mL
- Maximum Inhibition (%) [12]: 100%
B1: PRO997/PRO908 (37-20-B03-sc01 scFv) (scFv)
scFv: DIQMTQSPSSLSASVGDRVTITCQASQSIGTYLAWYQQKPGKAPKLLIYRAFILASGVPSRFSGSGSGTDFTLTISSLQPEDFATYYCQSNFYSDSTTIGPNAFGTGTKVTVLGGGGGSGGGGSGGGGSGGGGSQVQLQESGPGLVKPSETLSLTCKVSGFSFNSDYWIYWIRQPPGKGLEWIGSIYGGSSGNTQYASWAQGRVTISVDSSKNQFSLKLSSVTAADTAVYYCARGYVDYGGATDLWGQGTLVTVSS
notes: VL-linker-VH, VH4 CDR graft; PRO997 was made in CHO-S cells, PRO908 in bacteria; also called 37-20-B03 CDR

- Kd (Fc tagged human PDL1 [2]): 9.94 pM
- koff (Fc tagged human PDL1 [2]): 6.16e-05 s⁻¹
- kon (Fc tagged human PDL1 [2]): 6.19e+06 M⁻¹ s⁻¹
- IC50 [3]: 1.19 ng/mL
- Maximum Inhibition (%) [3]: 93.2%
- KD, cyno/KD, human [5]: 2
- Kd [5]: 0.0199 nM
- koff [5]: 8.87e-05 s⁻¹
- kon [5]: 4.45e+06 M⁻¹ s⁻¹
- binding result (Fc tagged human PDL2): no binding (tested: 180 nM)
- reporter gene assay IC50 [8]: 12 ng/mL
- reporter gene assay Maximum Inhibition (%) [8]: 96.7%
- IC50 [12]: 0.47 ng/mL
- Maximum Inhibition (%) [12]: 99.9%
B2: PRO1392 (33-03-G02-sc18 scFv) (scFv)
scFv: DIQMTQSPSSLSASVGDRVTITCQASQSINDYLAWYQQKPGKAPKLLIYKASTLASGVPSRFSGSGSGTDFTLTISSLQPEDFATYYCQQGYIITDIDNVFGTGTKVTVLGGGGGSGGGGSGGGGSGGGGSQVQLQESGPGLVKPSETLSLTCKASGFSFSSGYDMCWVRQPPGKGLEWIACVVAGSVDITYYASWAKGRVTISKDSSKNQVSLKLSSVTAADTAVYYCARKDAYSDAFNLWGQGTLVTVSS

- Kd (Fc tagged human PDL1 [2]): < 2.1 pM
- koff (Fc tagged human PDL1 [2]): < 1e-05 s⁻¹
- kon (Fc tagged human PDL1 [2]): 4.77e+06 M⁻¹ s⁻¹
- IC50 [3]: 0.977 ng/mL
- Maximum Inhibition (%) [3]: 95.4%
- KD, cyno/KD, human [5]: < 5.58
- Kd [5]: 0.0117 nM
- koff [5]: 1.82e-05 s⁻¹
- kon [5]: 1.55e+06 M⁻¹ s⁻¹
- binding result (Fc tagged human PDL2): no binding (tested: 180 nM)
- reporter gene assay IC50 [8]: 9.98 ng/mL
- reporter gene assay Maximum Inhibition (%) [8]: 102%
- IC50 [12]: 0.36 ng/mL
- Maximum Inhibition (%) [12]: 99.8%
B3: PRO1183 (33-03-G02-sc03 scFv) (scFv)
scFv: B2 scFv with I2F, M4L, A43S, V133S, Y228F
notes: also called 33_03_G02 sc03 Full

- EC50 [13]: 0.0202 µg/mL
- NF-AT potency assay IC50 [1]: 42.9 ng/mL
- koff (Fc tagged human PDL1 [2]): 0.000159 s⁻¹
- IC50 [3]: 6.11 ng/mL
- Maximum Inhibition (%) [3]: 94.5%
- KD, cyno/KD, human [5]: 0.97
- Kd [5]: 0.074 nM
- koff [5]: 0.000182 s⁻¹
- kon [5]: 2.46e+06 M⁻¹ s⁻¹
- IC50 [6]: 3.4 ng/mL
- reporter gene assay IC50 [8]: 37.5 ng/mL
- reporter gene assay Maximum Inhibition (%) [8]: 105%
- IC50 [9]: 0.0129 µg/mL
- IC50 [12]: 3.45 ng/mL
- Maximum Inhibition (%) [12]: 99.8%
B4: PRO830 (33-03-G02-sc01 scFv) (scFv)
scFv: B2 scFv with A155V, V169I, A181G, K205V, V212F
notes: also called 33-03-G02 CDR

- NF-AT potency assay IC50 [1]: 137 ng/mL
- IC50 [6]: 8.35 ng/mL
- IC50 [9]: 0.0122 µg/mL
- IL-2 secretion of SEA stimulated PBMC, EC50 in ng/ml [11]: 39.9 ng/mL
B5: PRO885 (38-02-A04 sc01 scDb-i/33-03-G02 sc01 scDb-o) (bispecific antibody)
chain: DIQMTQSPSSLSASVGDRVTITCQASQSINDYLAWYQQKPGKAPKLLIYKASTLASGVPSRFSGSGSGTDFTLTISSLQPEDFATYYCQQGYIITDIDNVFGTGTKVTVLGGGGGSQVQLQESGPGLVKPSETLSLTCKVSGFSFSNSYWICWIRQPPGKGLEWIGCTFVGSSDSTYYANWAKGRVTISVDSSKNQFSLKLSSVTAADTAVYYCARHPSDAVYGYANNLWGQGTLVTVSSGGGGSGGGGSGGGGSGGGGSIQMTQSPSSLSASVGDRVTITCQASQSINNVLAWYQQKPGKAPKLLIYRASTLASGVPSRFSGSGSGTDFTLTISSLQPEDFATYYCQSSYGNYGDFGTGTKVTVLGGGGGSQVQLQESGPGLVKPSETLSLTCKVSGFSFSSGYDMCWIRQPPGKGLEWIGCVVAGSVDITYYASWAKGRVTISVDSSKNQFSLKLSSVTAADTAVYYCARKDAYSDAFNLWGQGTLVTVSS

- Kd (Fc tagged human PDL1 [4]): 3.5 pM
- IC50 [6]: 1.28 ng/mL
- fold improvement in affinity against the CDR graft (PRO885) (Fc tagged human PDL1 [7]): 20 fold
- NFAT reporter gene assay IC50 [10]: 48.1 ng/mL
- NFAT reporter gene assay, improvement of neutralization potency against PRO885 [10]: 3 fold
B6: PRO1126 (38-02-A04 sc01 scDb-i/33_03_G02 sc03 Full scDb-o) (bispecific antibody)
chain: B5 chain with I2F, M4L, A43S, V374S, V396A, I410V, G422A, V446K, F453V, Y469F
